The target in assay [1] is T1, Human TREM2 protein, on cells (human, UniProt Q9NZC2 19-230).
T1 sequence: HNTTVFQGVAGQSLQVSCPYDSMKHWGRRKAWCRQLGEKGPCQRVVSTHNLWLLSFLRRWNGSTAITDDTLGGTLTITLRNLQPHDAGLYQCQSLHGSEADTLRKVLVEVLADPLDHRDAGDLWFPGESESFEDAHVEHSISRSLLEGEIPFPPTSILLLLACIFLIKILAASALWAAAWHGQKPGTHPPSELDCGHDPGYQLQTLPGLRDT
As to the kind of experiment: cell-based or functional assay.

In assay [2] the target is T1, Human TREM2 protein, on cells. As to the kind of experiment: cell-based or functional assay. This is another data set of the same source.
Assay [3] shares this target. As to the kind of experiment: flow cytometry titration on hTREM2-HEK cells. The source says: (§1) FIGS. 1A-1D. […] (A) Anti-TREM2 antibodies were screened for binding to HEK cells expressing human TREM2 (unlabeled) and mouse TREM2 HEK expressing cells (labeled with NucBlue). Antibody binding was detected with a secondary anti-mouse multiple adsorption antibody conjugated to APC. […] (B) Parental HEK-GFP cells were used as a negative control to rule out non-specific binding. (C) Anti-TREM2 antibody surface binding dose response in hTREM2-HEK cells. Anti-TREM2 antibodies were titrated for binding to HEK cells expressing human TREM2. Antibody binding was detected with a secondary anti-mouse multiple adsorption antibody conjugated to APC. […] Mouse TREM2 HEK cells were titrated for binding as in (C).
(§2) After labeling, cells were washed twice with 1×PBS. […] Mixed cell lines were seeded at 300,000 cells per well in a 96-well round-bottom and incubated 20 minutes at room temperature. After incubation, cells were centrifuged and test anti-TREM2 antibodies were added, then incubated for 45 minutes on ice. After incubation, cells were centrifuged and washed with FACS buffer three times.
In general terms: A flow cytometer gives signals particle by particle.

Assay [4] deals with T2, Mouse TREM2, on cells (mouse, UniProt Q99NH8 19-227).
T2 construct: whole, on cells; also called mouse TREM2 HEK
T2 sequence (looked up): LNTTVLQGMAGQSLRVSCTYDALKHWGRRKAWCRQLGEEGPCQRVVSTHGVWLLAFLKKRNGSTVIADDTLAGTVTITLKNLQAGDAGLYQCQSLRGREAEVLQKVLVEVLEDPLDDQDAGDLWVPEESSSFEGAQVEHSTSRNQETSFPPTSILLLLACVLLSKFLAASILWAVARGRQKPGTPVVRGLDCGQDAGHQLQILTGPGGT
As to the kind of experiment: flow cytometry titration on mTREM2-293F cells.
Text: as §1, §2

The target of assay [5] is T3, His-tagged TREM2 ECD (ecto domain residues 19-172 of human TREM2, C-terminal 6X-His tag) (human, UniProt Q9NZC2 19-172).
T3 construct: Made in Expi293F cells; the mouse Ig kappa secretion signal is not part of the mature protein; Biotinylated for the Octet binning; also called TREM2-His; TREM2-His protein
T3 sequence: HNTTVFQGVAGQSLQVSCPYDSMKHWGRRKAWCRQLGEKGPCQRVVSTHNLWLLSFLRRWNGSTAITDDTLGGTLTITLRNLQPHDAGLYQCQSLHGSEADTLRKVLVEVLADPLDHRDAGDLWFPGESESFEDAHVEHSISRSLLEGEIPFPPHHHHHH
The assay is described as follows: Table 1 Kd; Biacore, TREM2-His analyte (presumed). The procedure:
Anti-murine Fc antibody (obtained from GE Healthcare) was immobilized on the surface of a CM5 chip (obtained from GE Healthcare) through amine-coupling to reach about 6,000 to 8,000 response units (RU). The surface was activated by injection of a mixture of 1-ethyl-3-(3-dimethylaminopropyl)-carbodiimide (EDC) and N-hydroxysuccinimide (NHS), both obtained from GE Healthcare, for 7 minutes. Anti-murine Fc antibody was diluted in sodium acetate (pH 5.0) at 25 μg/mL and injected for 10 minutes at a flow rate of 5 μL/minute, followed by injection of ethanolamine (obtained from GE Healthcare) for 7 minutes.
Purified anti-TREM2 hybridoma (20 μg/mL) was captured to reach 1000-1500 RU. A range of serially-diluted TREM2-His protein (e.g., 3.4 nM to 300 nM) was injected at a flow rate of 30 μL/minute, using either single-cycle kinetics methods. Sensorgrams were fitted using a 1:1 Langmuir model to estimate kₒₙ and koff.

Assay [6] concerns the target T2, Mouse TREM2, on cells. The assay is described as follows: flow cytometry, 293F cells overexpressing mouse TREM2. The procedure:
as §2
(§3) The data in Table 2 is presented as fold over binding (FOB).

In assay [7] the target is T1, Human TREM2 protein, on cells. The assay is described as follows: flow cytometry, HEK293 cells overexpressing human TREM2. The procedure:
as §2, §3

Assay [8] concerns the target T3, His-tagged TREM2 ECD (ecto domain …). As to the kind of experiment: Biacore T200, antibody captured, antigen injected, 1:1 model. The method, then: (§4) To measure TfR binding, anti-human-Fab was immobilized on a CM5 chip, and the TREM2/TfR-binding protein was captured. Full-length human TfR or human TfR apical domain at serial dilution (e.g., concentrations of 1-1000 nM) was flowed over the chip (180 second association time) and then allowed to dissociate. Fitting was performed using a 1:1 binding model. To measure TREM2 binding, anti-human-Fc antibody was immobilized on a CM5 chip, and the TREM2/TfR-binding protein was captured. A range of concentrations of recombinant TREM2-His protein were flowed over the chip, and allowed to associate and dissociate. The resulting sensograms were fitted using a 1:1 Langmuir model to estimate kₒₙ and koff (FIG. 10).
(§5) Biacore Series S CM5 sensor chips were immobilized with a mixture of two monoclonal mouse anti-Fab antibodies (Human Fab capture kit from GE Healthcare). Serial 3-fold dilutions of each antigen were injected at a flow rate of 30 μL/min. The binding of the antigens to captured antibody was monitored for 30 to 180 seconds and then their dissociation was monitored for 30-300 seconds in HBS-EP+running buffer (GE, # BR100669). Binding response was corrected by subtracting the RU from a blank flow cell. A 1:1 Languir model of simultaneous fitting of kₒₙ and koff was used for kinetics analysis.
For orientation: SPR reads the build-up and loss of mass on a sensor chip optically.

Assay [9] addresses T1, Human TREM2 protein, on cells. As to the kind of experiment: cell binding, human TREM2-expressing HEK cells, flow cytometry titration.
For assay [10], the target named is T4, Human transferrin receptor apical domain (human, UniProt P02786 198-378, limits assumed).
T4 construct: also called hTfR apical domain; TfR apical domain
As to the kind of experiment: Biacore T200, antibody captured, antigen injected, 1:1 model. The method, then:
as §4, §5

The target in assay [11] is T5, Human TREM2 synthetic 9-mer peptide DLWFPGESE (human).
T5 construct: also called TREM2 peptide; TREM2 9-mer peptide
T5 peptide: DLWFPGESE
The assay is described as follows: X-ray co-crystal structure. The source says:
The synthetic 9-mer peptide […] (SEQ ID NO:335), corresponding to amino acid residues 140-148 of human TREM2 (according to UniProtKB entry TREM2_HUMAN) was used for co-crystallization.

Some results are limits rather than exact numbers.

T4 sequence (P02786 198-378 limits assumed): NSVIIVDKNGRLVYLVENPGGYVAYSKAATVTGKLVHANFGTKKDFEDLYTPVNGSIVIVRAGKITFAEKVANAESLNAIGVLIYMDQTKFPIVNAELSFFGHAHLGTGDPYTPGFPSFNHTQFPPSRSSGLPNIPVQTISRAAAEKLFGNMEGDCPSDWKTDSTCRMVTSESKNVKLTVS

B1: RS9.F6 (antibody, V domains shown)
VH: QVQLQQPGAELVKPGASVKLSCKASGYTFTSYWMHWVKQSPGRGLEWIGRSDPTTGGTNYNEKFKTKATLTVDKPSSTAYMQLSSLTSDDSAVYYCVRTSGTGDYWGQGTSLTVSS
VL: DVVMTQTPLSLPVSLGDQASISCRSSQSLVHNNGNTFLHWYLQKPGQSPKLLIYKVSNRFSGVPDRFSGSGSGTDFTLKISRVEAEDLGVYFCSQTTHVPPTFGGGTKLEIK
As usually defined, the EC50 is the midpoint of the concentration-response curve. A low value points to greater potency. The Kd is a measure of binding affinity in units of concentration. As a reminder, the koff is the rate constant with which the complex falls apart. What is called kon is the rate constant with which the complex forms. Lower therefore signals slower complex formation. Regarding B1, the “pSyk FOB (30 nM Ab)” value in assay [1] amounted to 8.49 fold over background. Besides, the “STREM2 decrease (nM), EC50” value in assay [2] amounted to 0.3 nM. Besides, the “pSyk (nM), EC50” value in [2] stood at 15.9 nM. Further, the EC50 in assay [3] was below 2 nM; in [4], below 8 nM; in assay [9], 1.62 nM. Also, the figures for the Kd in [5] and in assay [8] were 0.733 nM and 2.3 nM, respectively. Further, the “FOB (fold over binding)” value in assay [6] stood at 73 fold; in assay [7] it was 13.2 fold. The koff in [8] amounted to 0.00034 s⁻¹. The molecule also came in with a kon in [8] of 150000 M⁻¹ s⁻¹.

B2: RS9.F6/3C.35.21.17 (bispecific antibody, human IgG1, L234A L235A)
heavy 1: QVQLQQPGAELVKPGASVKLSCKASGYTFTSYWMHWVKQSPGRGLEWIGRSDPTTGGTNYNEKFKTKATLTVDKPSSTAYMQLSSLTSDDSAVYYCVRTSGTGDYWGQGTSLTVSSASTKGPSVFPLAPSSKSTSGGTAALGCLVKDYFPEPVTVSWNSGALTSGVHTFPAVLQSSGLYSLSSVVTVPSSSLGTQTYICNVNHKPSNTKVDKKVEPKSCDKTHTCPPCPAPEAAGGPSVFLFPPKPKDTLMISRTPEVTCVVVDVSHEDPEVKFNWYVDGVEVHNAKTKPREEQYNSTYRVVSVLTVLHQDWLNGKEYKCKVSNKALGAPIEKTISKAKGQPREPQVYTLPPSRDELTKNQVSLWCLVKGFYPSDIAVLWESYGTEWASYKTTPPVLDSDGSFFLYSKLTVTKEEWQQGFVFSCSVMHEALHNHYTQKSLSLSPGK
heavy 2: QVQLQQPGAELVKPGASVKLSCKASGYTFTSYWMHWVKQSPGRGLEWIGRSDPTTGGTNYNEKFKTKATLTVDKPSSTAYMQLSSLTSDDSAVYYCVRTSGTGDYWGQGTSLTVSSASTKGPSVFPLAPSSKSTSGGTAALGCLVKDYFPEPVTVSWNSGALTSGVHTFPAVLQSSGLYSLSSVVTVPSSSLGTQTYICNVNHKPSNTKVDKKVEPKSCDKTHTCPPCPAPEAAGGPSVFLFPPKPKDTLMISRTPEVTCVVVDVSHEDPEVKFNWYVDGVEVHNAKTKPREEQYNSTYRVVSVLTVLHQDWLNGKEYKCKVSNKALGAPIEKTISKAKGQPREPQVYTLPPSRDELTKNQVSLSCAVKGFYPSDIAVEWESNGQPENNYKTTPPVLDSDGSFFLVSKLTVDKSRWQQGNVFSCSVMHEALHNHYTQKSLSLSPGK
light: B1 VL
notes: second: RS9.F6 Fd on Fc with LALAPG and hole mutations; Vectors co-transfected 1:1:2; also called RS9.F6/3C35.21.17_LALAPG; ATV-Anti-TREM2
Regarding B2, in assay [8], the Kd amounted to 2.6 nM, the koff was determined as 0.00038 s⁻¹ and the kon is 150000 M⁻¹ s⁻¹. In [10], this molecule came in with a Kd of 110 nM, a koff of 0.19 s⁻¹ and a kon of 1.7e+06 M⁻¹ s⁻¹.

B3: F6 Fab (Fab fragment of anti-TREM2 antibody RS9.F6) (Fab, V domains shown)
VH: B1 VH
VL: B1 VL
notes: Fab expressed in Expi-293 cells; also called TREM2 Fab
In the case of B3, the binding result in assay [11] is reported as “binds”.

B4: RS9.F10 (antibody, V domains shown)
VH: B1 VH
VL: B1 VL
notes: same entries as RS9.F6; also called RS.F10
As for B4, in assay [1], the “pSyk FOB (30 nM Ab)” value was 9.89 fold over background. Also, in assay [2], the “pSyk (nM), EC50” value stood at 20.5 nM. The EC50 is below 2 nM in [3], below 8 nM in assay [4] and 1.54 nM in assay [9]. The molecule also yielded a Kd in assay [5] of 0.852 nM. Moreover, the “FOB (fold over binding)” value in assay [6] came out at 75.8 fold; in [7], 12.9 fold.

Values taken from patent US20200277373A1 (DENALI THERAPEUTICS, published 2020).
